Test results published in patent US20150196651A1 (published 2015).
Numbered stars: 1 amine (or outer) side, 2 acyl side, 3 side chain; on linkers, the order of the positions; unused ones are H or OH. Square brackets hold non-standard residues; d marks the D form. Side chains are listed from the residue outwards. Ends that are not written are not given here. * marks the point of attachment. γGlu = O=C(O)[C@H](CCC(=O)[*:2])N[*:1]; Palmitoyl = CCCCCCCCCCCCCCCC(=O)*; Myristoyl = CCCCCCCCCCCCCC(=O)*; NMeA = CN[C@@H](C)C(=O)O

Tests used:
[1] = target: T1, human PrRP receptor GPR10 (human, UniProt P49683 1-370); assay: competition with 125I-human PrRP31, CHO cells with human GPR10
T1 construct: whole, on cells; also called GPR10 human receptor transfected in CHO cells; human GPR10 receptor
T1 sequence (looked up): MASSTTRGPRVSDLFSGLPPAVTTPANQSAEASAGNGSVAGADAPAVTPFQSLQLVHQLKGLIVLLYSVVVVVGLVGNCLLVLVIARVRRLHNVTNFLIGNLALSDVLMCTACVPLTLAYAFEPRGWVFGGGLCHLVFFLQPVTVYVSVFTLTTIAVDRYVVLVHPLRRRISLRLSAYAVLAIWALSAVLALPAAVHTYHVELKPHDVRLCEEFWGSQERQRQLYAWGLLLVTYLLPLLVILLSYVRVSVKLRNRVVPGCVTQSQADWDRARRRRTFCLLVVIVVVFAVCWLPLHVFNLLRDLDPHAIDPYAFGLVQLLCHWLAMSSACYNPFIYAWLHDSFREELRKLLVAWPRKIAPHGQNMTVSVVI
Description: CHO cells transfected with human PrRP receptor GPR10 (Perkin Elmer, USA) were grown on 24-well plates coated with polyethyleneimine. […] The following agents were used for the experiment: binding buffer (25 mmol.1⁻¹ Tris, pH 7.4; 118 mmol.1⁻¹ NaCl, 10 mmol.1⁻¹ MgCl₂, 1 mmol.1⁻¹ CaCl₂, 5.5 mmol.1⁻¹ glucose, 0.5 mg/ml BSA), unlabeled analogs of PrRP (i.e. the analog being tested) at a final concentration between 10⁻¹¹ to 10⁻⁴ mol.1⁻¹, and radiolabeled human ¹²⁵1-PrRP31 at a final concentration of 5×10⁻¹¹ mol.1⁻¹.
(§1) Plates were incubated for 60 minutes at room temperature. After incubation, the cells were solubilized in 0.1 mol/l solution of NaOH, and the radioactivity bound to the cells was counted using a γ-counter. The experiments were performed in duplicate, and repeated at least three times.

[2] = target: T2, rat PrRP receptor in RC-4B/C cells (rat, UniProt Q64121 1-370); assay: competition with 125I-rat PrRP31, RC-4B/C cells
T2 construct: whole, on cells; endogenous receptor of RC-4B/C cells (ATCC); also called rat receptor; GPR10 receptor expressed in rat hypophyseal cells
T2 sequence (looked up): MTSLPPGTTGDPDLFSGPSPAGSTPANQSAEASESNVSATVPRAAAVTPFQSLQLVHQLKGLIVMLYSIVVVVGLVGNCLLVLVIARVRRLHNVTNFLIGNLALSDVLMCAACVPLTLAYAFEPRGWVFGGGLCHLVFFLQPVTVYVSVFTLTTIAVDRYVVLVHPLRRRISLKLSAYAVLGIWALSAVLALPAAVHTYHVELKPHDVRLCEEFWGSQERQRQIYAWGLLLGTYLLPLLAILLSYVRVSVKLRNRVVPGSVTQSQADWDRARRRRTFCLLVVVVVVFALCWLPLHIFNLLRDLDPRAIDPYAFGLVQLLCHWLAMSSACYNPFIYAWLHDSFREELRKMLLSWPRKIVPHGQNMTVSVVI
Description: The rat pituitary cell line RC-4B/C (ATCC, Manassas, USA) was grown on 24-well plates which had their bottom coated with polyethyleneimine. The cells were grown to the optimal density of 300-450 thousand cells per well.
as §1

B1: analog no. 30 (peptide)
peptide: Myristoyl-TPDINPAWY[NMeA]SRGIRPVGRF-NH2
SMILES: CCCCCCCCCCCCCC(=O)N[C@H](C(=O)N1CCC[C@H]1C(=O)N[C@@H](CC(=O)O)C(=O)N[C@H](C(=O)N[C@@H](CC(N)=O)C(=O)N1CCC[C@H]1C(=O)N[C@@H](C)C(=O)N[C@@H](Cc1c[nH]c2ccccc12)C(=O)N[C@@H](Cc1ccc(O)cc1)C(=O)N(C)[C@@H](C)C(=O)N[C@@H](CO)C(=O)N[C@@H](CCCNC(=N)N)C(=O)NCC(=O)N[C@H](C(=O)N[C@@H](CCCNC(=N)N)C(=O)N1CCC[C@H]1C(=O)N[C@H](C(=O)NCC(=O)N[C@@H](CCCNC(=N)N)C(=O)N[C@@H](Cc1ccccc1)C(N)=O)C(C)C)[C@@H](C)CC)[C@@H](C)CC)[C@@H](C)O
% of PrRP31 [1]: 185% | Ki [1]: 2.1 nM | % of PrRP31 [2]: 1070% | Ki [2]: 0.46 nM

SRTHRHSMEIK([γGlu-Palmitoyl])TPDINPAWYASRGIRPVGRF-NH2 (also called compound 52) [analog no. 52]
% of PrRP31 [1]: 65% | Ki [1]: 5.95 nM | % of PrRP31 [2]: 57% | Ki [2]: 4.23 nM

Palmitoyl-SRTHRHSMEIRTPDINPAWYASRGIRPVGRF-NH2 (also called analog no; 43; compound 43) [palm-PrRP31 (analog 43)]
% of PrRP31 [1]: 90% | % of PrRP31 [2]: 519% | Ki [2]: 0.95 nM

B2: analog no. 54 (peptide)
peptide: SRTHRHSMEIRTPDINPAWYASRGIRPVGRF
modifications: (N-palm)γ-E at the N-terminus (palmitoyl through gamma-glutamic acid); C-terminal amide
% of PrRP31 [1]: 57% | % of PrRP31 [2]: 119% | Ki [2]: 0.5 nM

SRTHRHSMEIRTPDINPAWYASRGIRPVGRF-NH2 (synthetic peptide) [Human PrRP31]
% of PrRP31 [1]: 86% | % of PrRP31 [2]: 207% | Ki [2]: 2.38 nM

B3: analog no. 42 (peptide)
peptide: Myristoyl-SRTHRHSMEIRTPDINPAWYASRGIRPVGRF-NH2
SMILES: CCCCCCCCCCCCCC(=O)N[C@@H](CO)C(=O)N[C@@H](CCCNC(=N)N)C(=O)N[C@H](C(=O)N[C@@H](Cc1c[nH]cn1)C(=O)N[C@@H](CCCNC(=N)N)C(=O)N[C@@H](Cc1c[nH]cn1)C(=O)N[C@@H](CO)C(=O)N[C@@H](CCSC)C(=O)N[C@@H](CCC(=O)O)C(=O)N[C@H](C(=O)N[C@@H](CCCNC(=N)N)C(=O)N[C@H](C(=O)N1CCC[C@H]1C(=O)N[C@@H](CC(=O)O)C(=O)N[C@H](C(=O)N[C@@H](CC(N)=O)C(=O)N1CCC[C@H]1C(=O)N[C@@H](C)C(=O)N[C@@H](Cc1c[nH]c2ccccc12)C(=O)N[C@@H](Cc1ccc(O)cc1)C(=O)N[C@@H](C)C(=O)N[C@@H](CO)C(=O)N[C@@H](CCCNC(=N)N)C(=O)NCC(=O)N[C@H](C(=O)N[C@@H](CCCNC(=N)N)C(=O)N1CCC[C@H]1C(=O)N[C@H](C(=O)NCC(=O)N[C@@H](CCCNC(=N)N)C(=O)N[C@@H](Cc1ccccc1)C(N)=O)C(C)C)[C@@H](C)CC)[C@@H](C)CC)[C@@H](C)O)[C@@H](C)CC)[C@@H](C)O
% of PrRP31 [1]: 83% | % of PrRP31 [2]: 1030% | Ki [2]: 0.48 nM

SETHRHSMEIKTPDINPAWYASRGIRPVGRF (K(N-POE(N-palm)) at residue 11; C-terminal amide) [analog no. 58]
% of PrRP31 [1]: 103% | Ki [1]: 3.79 nM | % of PrRP31 [2]: 575% | Ki [2]: 0.41 nM

TPDINPAWYTGRGIRPVGRF-NH2 (synthetic peptide) [Rat PrRP20]
% of PrRP31 [1]: 70% | Ki [1]: 5.56 nM | % of PrRP31 [2]: 143% | Ki [2]: 3.44 nM

B4: analog no. 1 (peptide)
peptide: Myristoyl-TPDINPAWYTGRGIRPVGRF-NH2
SMILES: CCCCCCCCCCCCCC(=O)N[C@H](C(=O)N1CCC[C@H]1C(=O)N[C@@H](CC(=O)O)C(=O)N[C@H](C(=O)N[C@@H](CC(N)=O)C(=O)N1CCC[C@H]1C(=O)N[C@@H](C)C(=O)N[C@@H](Cc1c[nH]c2ccccc12)C(=O)N[C@@H](Cc1ccc(O)cc1)C(=O)N[C@H](C(=O)NCC(=O)N[C@@H](CCCNC(=N)N)C(=O)NCC(=O)N[C@H](C(=O)N[C@@H](CCCNC(=N)N)C(=O)N1CCC[C@H]1C(=O)N[C@H](C(=O)NCC(=O)N[C@@H](CCCNC(=N)N)C(=O)N[C@@H](Cc1ccccc1)C(N)=O)C(C)C)[C@@H](C)CC)[C@@H](C)O)[C@@H](C)CC)[C@@H](C)O
% of PrRP31 [1]: 133% | Ki [1]: 2.93 nM | % of PrRP31 [2]: 632% | Ki [2]: 0.78 nM

B5: analog no. 32 (peptide)
peptide: Myristoyl-TPDINPAWYTGRGARPFGRF-NH2
SMILES: CCCCCCCCCCCCCC(=O)N[C@H](C(=O)N1CCC[C@H]1C(=O)N[C@@H](CC(=O)O)C(=O)N[C@H](C(=O)N[C@@H](CC(N)=O)C(=O)N1CCC[C@H]1C(=O)N[C@@H](C)C(=O)N[C@@H](Cc1c[nH]c2ccccc12)C(=O)N[C@@H](Cc1ccc(O)cc1)C(=O)N[C@H](C(=O)NCC(=O)N[C@@H](CCCNC(=N)N)C(=O)NCC(=O)N[C@@H](C)C(=O)N[C@@H](CCCNC(=N)N)C(=O)N1CCC[C@H]1C(=O)N[C@@H](Cc1ccccc1)C(=O)NCC(=O)N[C@@H](CCCNC(=N)N)C(=O)N[C@@H](Cc1ccccc1)C(N)=O)[C@@H](C)O)[C@@H](C)CC)[C@@H](C)O
% of PrRP31 [1]: 46% | Ki [1]: 8.47 nM | % of PrRP31 [2]: 68% | Ki [2]: 7.21 nM

TPDINPAWYASRPFRPVGRF-NH2 [analog no. 33]
% of PrRP31 [1]: 225% | Ki [1]: 1.73 nM | % of PrRP31 [2]: 230% | Ki [2]: 2.14 nM

B6: analog no. 34 (peptide)
peptide: Myristoyl-TPDINPAWYASRPFRPVGRF-NH2
SMILES: CCCCCCCCCCCCCC(=O)N[C@H](C(=O)N1CCC[C@H]1C(=O)N[C@@H](CC(=O)O)C(=O)N[C@H](C(=O)N[C@@H](CC(N)=O)C(=O)N1CCC[C@H]1C(=O)N[C@@H](C)C(=O)N[C@@H](Cc1c[nH]c2ccccc12)C(=O)N[C@@H](Cc1ccc(O)cc1)C(=O)N[C@@H](C)C(=O)N[C@@H](CO)C(=O)N[C@@H](CCCNC(=N)N)C(=O)N1CCC[C@H]1C(=O)N[C@@H](Cc1ccccc1)C(=O)N[C@@H](CCCNC(=N)N)C(=O)N1CCC[C@H]1C(=O)N[C@H](C(=O)NCC(=O)N[C@@H](CCCNC(=N)N)C(=O)N[C@@H](Cc1ccccc1)C(N)=O)C(C)C)[C@@H](C)CC)[C@@H](C)O
% of PrRP31 [1]: 671% | Ki [1]: 0.58 nM | % of PrRP31 [2]: 587% | Ki [2]: 0.84 nM

TPDINPAWYTGRGARPFGRF-NH2 [analog no. 31]
% of PrRP31 [1]: 0.7% | Ki [1]: 583 nM | % of PrRP31 [2]: 0.8% | Ki [2]: 655 nM

B7: analog no. 29 (peptide)
peptide: TPDINPAWY[NMeA]SRGIRPVGRF-NH2
modifications: N-terminus assumed
SMILES: CC[C@H](C)[C@H](NC(=O)CNC(=O)[C@H](CCCNC(=N)N)NC(=O)[C@H](CO)NC(=O)[C@H](C)N(C)C(=O)[C@H](Cc1ccc(O)cc1)NC(=O)[C@H](Cc1c[nH]c2ccccc12)NC(=O)[C@H](C)NC(=O)[C@@H]1CCCN1C(=O)[C@H](CC(N)=O)NC(=O)[C@@H](NC(=O)[C@H](CC(=O)O)NC(=O)[C@@H]1CCCN1C(=O)[C@@H](N)[C@@H](C)O)[C@@H](C)CC)C(=O)N[C@@H](CCCNC(=N)N)C(=O)N1CCC[C@H]1C(=O)N[C@H](C(=O)NCC(=O)N[C@@H](CCCNC(=N)N)C(=O)N[C@@H](Cc1ccccc1)C(N)=O)C(C)C
% of PrRP31 [1]: 45% | Ki [1]: 8.72 nM | % of PrRP31 [2]: 10% | Ki [2]: 49.4 nM
